In article PMC3985488:

Assays:
Dpo4 Y274W = biological target: T1, Dpo4 Y274W (Sulfolobus solfataricus, UniProt Q97W02 1-352, C31S;Y274W); assay: steady-state Trp fluorescence
T1 sequence: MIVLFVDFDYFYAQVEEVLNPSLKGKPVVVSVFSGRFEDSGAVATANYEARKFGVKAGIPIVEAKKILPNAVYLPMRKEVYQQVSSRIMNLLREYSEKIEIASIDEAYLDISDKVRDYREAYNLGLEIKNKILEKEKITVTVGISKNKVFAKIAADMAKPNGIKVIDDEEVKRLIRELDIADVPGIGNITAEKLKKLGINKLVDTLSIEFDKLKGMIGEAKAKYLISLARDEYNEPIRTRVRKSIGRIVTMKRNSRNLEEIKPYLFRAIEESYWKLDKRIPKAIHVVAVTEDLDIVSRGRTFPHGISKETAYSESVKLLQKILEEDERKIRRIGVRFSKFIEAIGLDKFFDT

Dpo4 Y108W-K329C-CPM = biological target: T2, Dpo4 Y108W-K329C-CPM (Sulfolobus solfataricus, UniProt Q97W02 1-352, C31S;Y108W;K329C); assay: stopped-flow FRET
T2 sequence: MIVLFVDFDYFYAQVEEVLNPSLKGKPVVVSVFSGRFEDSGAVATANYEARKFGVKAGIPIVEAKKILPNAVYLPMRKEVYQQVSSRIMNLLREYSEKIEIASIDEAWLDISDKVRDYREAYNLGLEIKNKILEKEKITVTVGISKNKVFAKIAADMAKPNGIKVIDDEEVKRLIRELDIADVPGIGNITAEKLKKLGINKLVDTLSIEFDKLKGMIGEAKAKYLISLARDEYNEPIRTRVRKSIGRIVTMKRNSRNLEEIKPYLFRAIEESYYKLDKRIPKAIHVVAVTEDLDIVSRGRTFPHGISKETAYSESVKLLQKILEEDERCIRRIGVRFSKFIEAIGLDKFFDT

Dpo4 Y108W = biological target: T3, Dpo4 Y108W (Sulfolobus solfataricus, UniProt Q97W02 1-352, C31S;Y108W); assay: steady-state Trp fluorescence
T3 sequence: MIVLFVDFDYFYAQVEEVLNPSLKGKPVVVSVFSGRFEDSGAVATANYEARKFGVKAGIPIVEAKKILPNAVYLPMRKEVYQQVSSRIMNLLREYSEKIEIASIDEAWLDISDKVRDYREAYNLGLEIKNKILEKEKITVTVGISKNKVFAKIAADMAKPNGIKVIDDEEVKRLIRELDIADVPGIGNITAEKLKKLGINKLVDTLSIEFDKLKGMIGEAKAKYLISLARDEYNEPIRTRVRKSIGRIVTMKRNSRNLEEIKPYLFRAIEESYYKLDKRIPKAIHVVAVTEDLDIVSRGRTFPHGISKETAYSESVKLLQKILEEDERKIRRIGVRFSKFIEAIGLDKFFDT

Measured: binding result

B1: DNAOH 21/30-mer (dsDNA)
DNA 1: CGAGCCGTCGCATCCTACCGC
DNA 2: GATGCTGCAGCGGTAGGATGCGACGGCTCG
binds: Dpo4 Y274W | Dpo4 Y108W-K329C-CPM | Dpo4 Y108W
